Substitutions are numbered along the chain they refer to. Names may count otherwise. Each block holds one binder with its values, some of them ahead of it.
Assays:
[1] = biological target: T1, Recombinant Human DLL4 (R&D Systems Cat#1506-D4/CF) (human, UniProt Q9NR61 27-524); assay: ECL multispot (MSD) binding assay, antigen spotted on plate, Fab 0.04 uM;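 note: purified Fab incubated 1 h at 20 °C on antigen spots, detected via TAG-labelled antibody, ECL read against each well's blank, with signal-to-blank of at least 4 scored as binder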
T1 construct: Bought recombinant protein; also called delta-like protein 4; rHuman DLL4

[2] = biological target: T2, rHuman Erythropoietin R/Fc Chimera, CF (R&D Systems Cat#963-ER) (human, UniProt P19235 25-250); assay: as above
T2 construct: Bought recombinant protein; also called EPO R; EPO R/Fc; Fc part of the bought chimera not given
T2 sequence (looked up): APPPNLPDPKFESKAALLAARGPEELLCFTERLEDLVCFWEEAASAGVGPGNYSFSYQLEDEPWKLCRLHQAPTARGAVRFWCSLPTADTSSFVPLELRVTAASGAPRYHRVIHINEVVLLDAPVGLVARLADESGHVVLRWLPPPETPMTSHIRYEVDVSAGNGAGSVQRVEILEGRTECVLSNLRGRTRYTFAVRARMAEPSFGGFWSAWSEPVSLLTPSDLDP

[3] = biological target: T3, rHuman Notch-1/Fc Chimera, CF (R&D Systems Cat#3647-TK) (human, UniProt P46531 19-526); assay: as above
T3 construct: Bought recombinant protein; Fc part of the bought chimera not given

[4] = biological target: T4, rHuman P-Cadherin/Fc Chimera, CF (R&D Systems Cat#861-PC) (human, UniProt P22223 108-654); assay: as above
T4 construct: Bought recombinant protein; Fc part of the bought chimera not given

[5] = biological target: T5, rHuman EGF R/Fc Chimera, CF (R&D Systems Cat#344-ER) (human, UniProt P00533 25-645); assay: as above
T5 construct: Bought recombinant protein; also called epidermal growth factor receptor; Fc part of the bought chimera not given

[6] = biological target: T6, rHuman HGF R/c-MET/Fc Chimera, CF (R&D Systems Cat#358-MT/CF) (human, UniProt P08581 25-932); assay: as above
T6 construct: Bought recombinant protein; also called HGF R/Fc; hepatocyte growth factor receptor; Fc part of the bought chimera not given

[7] = biological target: T7, rHuman CD44/Fc Chimera, CF (R&D Systems Cat#3660-CD) (human, UniProt P16070 21-220); assay: as above
T7 construct: Bought recombinant protein; Fc part of the bought chimera not given

[8] = biological target: T8, rHuman ErbB2/Fc Chimera, CF (R&D Systems Cat#1129-ER) (human, UniProt P04626 23-652); assay: as above
T8 construct: Bought recombinant protein; also called human epidermal growth factor 2 receptor; Fc part of the bought chimera not given

[9] = biological target: T9, Recombinant Human DLL4 (delta-like protein 4) (human, UniProt Q9NR61 27-524); assay: SPR, Fab on recombinant human DLL4; column head x10^-3 applied
T9 construct: Bought recombinant protein; also called rHuman DLL4; Delta-like 4

[10] = biological target: T9, Recombinant Human DLL4 (delta-like …); assay: SPR, Fab on recombinant human DLL4
[11] = biological target: T9, Recombinant Human DLL4 (delta-like …); assay: SPR, Fab on recombinant human DLL4; column head x10^5 applied
[12] = biological target: T10, Recombinant Human DLL4 (delta-like protein 4) (human, UniProt Q9NR61 27-524); assay: ELISA, Fab on plate-coated recombinant human DLL4
T10 construct: also called rHuman DLL4; Delta-like 4

[13] = biological target: T11, Recombinant Human DLL4 (R&D Systems Cat#1506-D4/CF) (human, UniProt Q9NR61 27-524); assay: ELISA and 96-well plate ECL
T11 construct: bought recombinant protein; also called rHuman DLL4; delta-like protein 4

[14] = biological target: T12, rHuman Erythropoietin R/Fc Chimera, CF (human, UniProt P19235 25-250); assay: ECL multispot (MSD) binding assay, antigen spotted on plate, 100 nM Fab
T12 construct: Bought protein; also called EPO R; EPO R/Fc; Fc part of the bought chimera not given
T12 sequence (looked up): T2 sequence (looked up)

[15] = biological target: T13, rHuman CD44/Fc Chimera, CF (human, UniProt P16070 21-220); assay: as above
T13 construct: Bought protein; Fc part of the bought chimera not given

[16] = biological target: T14, rHuman ErbB2/Fc Chimera, CF (human, UniProt P04626 23-652); assay: as above
T14 construct: Bought protein; also called human epidermal growth factor 2 receptor; Fc part of the bought chimera not given

[17] = biological target: T15, rHuman EGF R/Fc Chimera, CF (human, UniProt P00533 25-645); assay: as above
T15 construct: Bought protein; also called epidermal growth factor receptor; Fc part of the bought chimera not given

[18] = biological target: T16, rHuman Notch-1/Fc Chimera, CF (human, UniProt P46531 19-526); assay: as above
T16 construct: Bought protein; Fc part of the bought chimera not given

[19] = biological target: T17, rHuman P-Cadherin/Fc Chimera, CF (human, UniProt P22223 108-654); assay: as above
T17 construct: Bought protein; Fc part of the bought chimera not given

[20] = biological target: T18, rHuman IGF-1 sR, (IGF-1 sR), CF (human, UniProt P08069 31-932); assay: as above
T18 construct: The column head prints 'IGF-1'; The antigen panel of the assay holds the soluble IGF-1 receptor, not the ligand; also called insulin-like growth factor-1 soluble receptor

[21] = biological target: T19, rHuman Erythropoietin R/Fc Chimera, CF (R&D Systems Cat#963-ER) (human, UniProt P19235 25-250); assay: ECL (MSD) multispot binding assay, antigen spotted on plate, 20 nM Fab;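 note: purified Fab incubated 1 h at 20 °C on antigen-spotted plate, bound Fab revealed with TAG detection antibody, ECL read, antigen signal divided by same-well blank, ratio ≥4 counted as hit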
T19 construct: Bought reagent; also called EPO R; EPO R/Fc; Fc part of the bought chimera not given
T19 sequence (looked up): T2 sequence (looked up)

[22] = biological target: T20, rHuman HGF R/c-MET/Fc Chimera, CF (R&D Systems Cat#358-MT/CF) (human, UniProt P08581 25-932); assay: as above
T20 construct: Bought reagent; also called HGF R/Fc; hepatocyte growth factor receptor; Fc part of the bought chimera not given

[23] = biological target: T21, rHuman Notch-1/Fc Chimera, CF (R&D Systems Cat#3647-TK) (human, UniProt P46531 19-526); assay: as above
T21 construct: Bought reagent; Fc part of the bought chimera not given

[24] = biological target: T22, rHuman CD44/Fc Chimera, CF (R&D Systems Cat#3660-CD) (human, UniProt P16070 21-220); assay: as above
T22 construct: Bought reagent; Fc part of the bought chimera not given

[25] = biological target: T23, Recombinant Human DLL4 (R&D Systems Cat#1506-D4/CF) (human, UniProt Q9NR61 27-524); assay: as above
T23 construct: Bought recombinant protein; also called delta-like protein 4; rHuman DLL4

[26] = biological target: T24, rHuman EGF R/Fc Chimera, CF (R&D Systems Cat#344-ER) (human, UniProt P00533 25-645); assay: as above
T24 construct: Bought reagent; also called epidermal growth factor receptor; Fc part of the bought chimera not given

[27] = biological target: T25, rHuman IGF-1 sR, CF (R&D Systems Cat#391-GR) (human, UniProt P08069 31-932); assay: as above
T25 construct: Bought soluble receptor; also called insulin-like growth factor-1 soluble receptor

[28] = biological target: T26, rHuman P-Cadherin/Fc Chimera, CF (R&D Systems Cat#861-PC) (human, UniProt P22223 108-654); assay: as above
T26 construct: Bought reagent; Fc part of the bought chimera not given

[29] = biological target: T27, rHuman ErbB2/Fc Chimera, CF (R&D Systems Cat#1129-ER) (human, UniProt P04626 23-652); assay: as above
T27 construct: Bought reagent; also called human epidermal growth factor 2 receptor; Fc part of the bought chimera not given

B5: Fab VH1-46_IGHD6-6*01_IGHJ1*01 S102A/S103P/S104F/H111F (H:APFF) & L6_IGKJ1*01 S28N/S30D/S31H (L:NDH) (Fab, V domains shown)
VH: QVQLVQSGAEVKKPGASVKVSCKASGYTFTSYYMHWVRQAPGQGLEWMGIINPSGGSTSYAQKFQGRVTMTRDTSTSTVYMELSSLRSEDTAVYYCAREEYAPFSAEYFQFWGQGTLVTVSS
VL: EIVLTQSPATLSLSPGERATLSCRASQNVDHYLAWYQQKPGQAPRLLIYDASNRATGIPARFSGSGSGTDFTLTISSLEPEDFAVYYCQQRSNWPPWTFGQGTKVEIKR
notes: Fab; also called H:APFF & L:NDH; APFF-NDH
fold affinity against the parent antibody APFF mutant [13]: 4 fold

B6: Fab VH1-46_IGHD6-6*01_IGHJ1*01 S102A/S103P/S104F/H111F/G56A (H:APFF G56A) & L6_IGKJ1*01 S28N/S30D/S31H (L:NDH) (Fab, V domains shown)
VH: B5 VH with G56A
VL: B5 VL
notes: Fab; also called H:APFF G56A & L:NDH
fold affinity against the H:APFF & L:wt parental antibody mutant [13]: 8 fold

B7: Fab VH3-23_IGHD2-21*01>3_IGHJ6*01 I107A & V2-13_IGLJ2*01 (Fab, V domains shown)
VH: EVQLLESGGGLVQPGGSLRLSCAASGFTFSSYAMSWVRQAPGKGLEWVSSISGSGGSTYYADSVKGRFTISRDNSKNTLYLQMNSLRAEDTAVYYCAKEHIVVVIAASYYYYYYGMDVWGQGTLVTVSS
VL: SSELTQDPAVSVALGQTVRITCQGDSLRSYYASWYQQKPGQAPVLVIYGKNNRPSGIPDRFSGSSSGNTASLTITGAQAEDEADYYCNSRDSSGNHLVVFGGGTKLTVL
notes: Tested as a Fab made in E. coli
ECL signal/blank ratio (quantity not given) [14]: 43.6
ECL signal/blank ratio (quantity not given) [15]: 1.5
ECL signal/blank ratio (quantity not given) [16]: 4.8
ECL signal/blank ratio (quantity not given) [17]: 4.3
ECL signal/blank ratio (quantity not given) [18]: 2.7
ECL signal/blank ratio (quantity not given) [19]: 19.6
ECL signal/blank ratio (quantity not given) [20]: 1.1

B8: Fab VH3-23_IGHD2-21*01>3_IGHJ6*01 H100E/S108P/Y113G Y114T & V2-13_IGLJ2*01 (Fab, V domains shown)
VH: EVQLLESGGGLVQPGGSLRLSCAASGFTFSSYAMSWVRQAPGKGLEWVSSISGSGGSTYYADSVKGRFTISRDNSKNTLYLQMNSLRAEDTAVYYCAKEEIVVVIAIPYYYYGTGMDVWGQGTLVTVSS
VL: B7 VL
notes: Tested as Fab made in E. coli (VH-CH1 with His and Flag tags; lambda CL); also called EPG Y114T
ECL multispot value [21]: 2
ECL multispot value [22]: 1.8
ECL multispot value [23]: 1.8
ECL multispot value [24]: 1.1
ECL multispot value [25]: 1.6
ECL multispot value [26]: 1.3
ECL multispot value [27]: 1.1
ECL multispot value [28]: 1.7
ECL multispot value [29]: 1.4

B9: Fab VH3-23_IGHD2-21*01>3_IGHJ6*01 H100E/S108P/Y113G Y114P & V2-13_IGLJ2*01 (Fab, V domains shown)
VH: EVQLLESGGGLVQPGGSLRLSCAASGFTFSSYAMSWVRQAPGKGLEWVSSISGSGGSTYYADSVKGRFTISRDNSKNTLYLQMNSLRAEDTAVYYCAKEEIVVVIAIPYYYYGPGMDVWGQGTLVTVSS
VL: B7 VL
notes: Tested as Fab made in E. coli (VH-CH1 with His and Flag tags; lambda CL); also called EPG Y114P
ECL multispot value [21]: 2.3
ECL multispot value [22]: 2.7
ECL multispot value [23]: 1.4
ECL multispot value [24]: 1.1
ECL multispot value [25]: 1.1
ECL multispot value [26]: 1.2
ECL multispot value [27]: 0.9
ECL multispot value [28]: 1.3
ECL multispot value [29]: 1.4

B10: Fab VH3-23_IGHD2-21*01>3_IGHJ6*01 S108A & V2-13_IGLJ2*01 (Fab, V domains shown)
VH: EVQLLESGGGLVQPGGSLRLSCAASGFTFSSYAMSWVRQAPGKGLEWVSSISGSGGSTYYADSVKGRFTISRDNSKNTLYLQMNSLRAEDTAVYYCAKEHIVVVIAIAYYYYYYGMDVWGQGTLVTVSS
VL: B7 VL
notes: as for B7
ECL signal/blank ratio (quantity not given) [14]: 9.5
ECL signal/blank ratio (quantity not given) [15]: 1.3
ECL signal/blank ratio (quantity not given) [16]: 1.9
ECL signal/blank ratio (quantity not given) [17]: 2
ECL signal/blank ratio (quantity not given) [18]: 1.5
ECL signal/blank ratio (quantity not given) [19]: 4.8
ECL signal/blank ratio (quantity not given) [20]: 1.2

Further lines, results first:

ECL signal [1]: 33400
ECL signal [2]: 675
ECL signal [3]: 682
ECL signal [4]: 484
ECL signal [5]: 833
ECL signal [6]: 1110
ECL signal [7]: 632
ECL signal [8]: 1120
B1: Fab VH5-51_IGHD5-18*01>3_IGHJ4*01 G100K/G104T (H:KT) & V3-4_IGLJ1*01 V91A (Fab, V domains shown)
VH: EVQLVQSGAEVKKPGESLKISCKGSGYSFTSYWIGWVRQMPGKGLEWMGIIYPGDSDTRYSPSFQGQVTISADKSISTAYLQWSSLKASDTAMYYCARRKYSYTYDYFDYWGQGTLVTVSS
VL: QTVVTQEPSFSVSPGGTVTLTCGLSSGSVSTSYYPSWYQQTPGQAPRTLIYSTNTRSSGVPDRFSGSILGNKAALTITGAQADDESDYYCALYMGSGISYVFGTGTKVTVL
notes: Fab; Expressed from Plasmid A (CH1, His6 and Flag tags) and Plasmid E (lambda CL); also called KT & V91A

koff [9]: 0.036 s⁻¹
Kd [10]: 3.3 nM
kon [11]: 1.1e+07 M⁻¹ s⁻¹
B2: Fab VH5-51_IGHD5-18*01>3_IGHJ4*01 G100K/G104T G24T/S28R/G35V & V3-4_IGLJ1*01 V91L/S96P (Fab, V domains shown)
VH: B1 VH with G24T, S28R, G35V
VL: B1 VL with A91L, S96P
notes: Fab made in E. coli; VH was cloned in Plasmid A (CH1, His6 and Flag tags) and VL in Plasmid E (lambda CL); also called H:KT TRV & L:LP

ELISA signal [12]: 0.1
B3: Fab VH5-51_IGHD5-18*01>3_IGHJ4*01 G100K/G104T (H:KT) & V3-4_IGLJ1*01 G23L (Fab, V domains shown)
VH: B1 VH
VL: B1 VL with G23L, A91V
notes: Fab (CH1 with His6/Flag tags from Plasmid A, lambda CL from Plasmid E); also called G100K/G104T & G23L

koff [9]: 0.0147 s⁻¹
Kd [10]: 5 nM
kon [11]: 2.96e+06 M⁻¹ s⁻¹
B4: Fab VH5-51_IGHD5-18*01>3_IGHJ4*01 G100K/G104T G24T/S28R/G35V & V3-4_IGLJ1*01 V91L/S96P S52G (Fab, V domains shown)
VH: B1 VH with G24T, S28R, G35V
VL: B1 VL with S52G, A91L, S96P
notes: Fab made in E. coli; VH was cloned in Plasmid A (CH1, His6 and Flag tags) and VL in Plasmid E (lambda CL); also called H:KT TRV & L:LP S52G

Source: US20120316071A1 (published 2012)
